Assay results from US20250332278A1, “MULTIVALENT DISPLAY OF APOAI PEPTIDE ON NANOPARTICLES AGAINST ATHEROSCLEROSIS” (The Regents of the University of California, priority 2022, published 2025).

Key:
[1] = biological target: ATP-binding cassette transporter A1 (ABCA1) on J774 foam cells (UniProt P41233); assay: cell-based or functional assay
[2] = Dynamic light scattering of VLP/VNP conjugates; assay type: physicochemical; conditions: 1 mg/mL in 0.01 M KP buffer
Experimental: Dynamic Light Scattering (DLS). The hydrodynamic diameter of VLPs/VNPs conjugates were probed using a Zetasizer Nano ZSP/Zen5600 instrument (Malvern Panalytical, Malvern, UK). Particle hydrodynamic diameter was calculated as the weighted mean of the intensity distribution and samples were analyzed at 1 mg/mL concentration in 0.01 M KP buffer.

[3] = system: SVEC cells; assay: ROS assay; assay type: cell-based; conditions: 8 h treatment (0.5 μM particles or matched free peptide), then ox-LDL 4 h
Experimental: ROS assay. SVEC cells (ATCC) were seeded in four-compartment 35-mm CELLview glass-bottom dishes or 96-well plates at 6×10^4 cells/mL in 500 μL DMEM and were allowed to reach ˜80% confluence. The medium was then removed, and the cells were washed once with PBS before incubation with VLPs/VNPs for 8 h. Applicant then added 100 μg/mL ox-LDL for 4 h to induce oxidative stress and detected ROS using a CellROX Green Reagent Kit. Images were captured using a Nikon AiR confocal microscope with a 20×, 0.75 numerical aperture dry objective.

[4] = system: J774 foam cells (ABCA1-mediated cholesterol efflux); assay: J774 cholesterol efflux assay; assay type: cell-based
Experimental: J774 Cholesterol efflux assay. Cholesterol efflux was measured from J774 cells (ATCC) as previously described.^23 Briefly, J774 cells were seeded in 96-well plates at 1×10^5 cells/100 μL in DMEM (Corning) with 10% (v/v) fetal bovine serum (FBS) and 1% (w/v) penicillin-streptomycine (P/S). Cells were incubated until they reached ˜80% confluence. After two rinses with FBS-free DMEM containing 1% (w/v) P/S they were incubated for 48 h in 200 μL FBS-free DMEM containing 40 μg/mL acetylated low-density lipoprotein (AcLDL), 2 μg/mL Sandoz inhibitor, 1% (w/v) P/S, and 5% (v/v) human lipoprotein-deficient serum (LPDS) to produce foam cells. Excess lipids were removed by two rinses as above, and foam cells were equilibrated for 12 h in 200 μL FBS-free DMEM, 2 μg/mL Sandoz inhibitor, 0.3 mM CPT-cAMP, 1% (w/v) P/S, and 5% (v/v) human LPDS. After two further rinses, cholesterol efflux was initiated by adding different VLP/VNP or peptide treatments in FBS-free DMEM containing 1% (w/v) P/S and 5% (v/v) human LPDS and incubating for 15 h. The medium was then collected, centrifuged (1000×g, 10 min, 4° C.) and the cholesterol content of the supernatant was determined using the Amplex assay kit. Cells were washed three times with ice-cold PBS, lysed using 200 μL of Cytobuster lysis buffer, and the cholesterol content of the lysate was determined using the Amplex assay kit. Cholesterol efflux was calculated by dividing the amount of cholesterol in the medium by the total cholesterol content of the medium and lysate.

[5] = system: SVEC cells; assay: Wound healing assay under oxidative stress; assay type: cell-based; conditions: 0.5 μM, 8-h treatment, 4-h 50 μg/mL ox-LDL, versus control (serum-free medium)
Experimental: Wound healing assay. SVEC cell migration was investigated using a Radius 96-well kit (Cell Bio Labs). Applicant seeded 3×10^4 cells in 200 μL DMEM per well and allowed the cells to reach ˜80% confluence. After removing the Radius Gel, cells were allowed to migrate for 24 h in the presence of various treatments. Bright-field phase contrast images were acquired after 0, 12 and 24 h using an EVOS FL microscope fitted with a 10× objective (n=6 cells per group). Percentage wound closure was calculated by tracing the wound perimeter in ImageJ to calculate the area at t=12 or 24 h and dividing by the initial starting area at t=0 h.
Applicant therefore evaluated the effect of T-4FN on wound healing using SVEC cells.

[6] = BODIPY-cholesterol binding assay (DLS and fluorescence); conditions: for PDI after incubation with BODIPY-cholesterol / Zav after incubation with BODIPY-cholesterol: 20 uM BODIPY-cholesterol; for PDI after incubation with BODIPY-cholesterol: 2 h at 37° C.; for size change / cholesterol binding on incubation with BODIPY-cholesterol: relative to cholesterol-free controls
Experimental: BODIPY-Cholesterol Binding assay. A fluorescent cholesterol, BODIPY-cholesterol or 23-(dipyrrometheneboron difluoride)-24-norcholesterol was used to examine the HDL biomimics' ability to uptake cholesterol. VNP samples (500 μg) and equimolar HDL were incubated with 20 uM BODIPY-cholesterol for 2 hours at 37° C. on a shaker at 150 rpm in 0.5 mL of 10 mM KP/DMSO. After incubation, samples were purified by centrifuge using 100 kDa molecular-weight cutoff Amicon spin-filters to remove free, unbound cholesterol. Samples were analyzed for size on DLS (see above) and fluorescence before and after BODIPY-cholesterol binding using 480/508 nm excitation/emission parameters on a Tecan Plate Reader.
To investigate the ability of the TMV particles to bind cholesterol, Applicant mixed them with fluorescent BODIPY cholesterol for 2 h at 37° C. in 0.01M KP/DMSO (50:50).
The cholesterol-bound nanoparticles were separated from free cholesterol by centrifugation in spin filters with a 100-kDa cutoff. Samples without cholesterol were incubated as a negative control. Purified fractions were analyzed by DLS and fluorimetry.

[7] = system: J774 foam cells; assay: TMV-ApoAI distribution during cholesterol efflux from J774 foam cells (confocal fluorescence microscopy); assay type: cell-based; conditions: 0.5 μM 5FAM-labeled particles, 12 h
Experimental: TMV-ApoAI distribution during cholesterol efflux from J774 foam cells. Applicant seeded 1×10^5 J774 cells in 500 μL DMEM containing 10% (v/v) FBS and 1% (w/v) P/S into each zone of a four-compartment 35-mm CELLview glass-bottom dish, and allowed them to reach ˜80% confluence. Cells were rinsed twice with 500 μL FBS-free DMEM containing 1% (w/v) P/S and incubated for 48 h in 200 μL FBS-free DMEM containing 40 μg/mL of fluorescence-labeled acetylated low-density lipoprotein (Dil-AcLDL), 2 μg/mL Sandoz inhibitor, 1% (w/v) P/S, and 5% (v/v) human LPDS to produce labeled foam cells. After two rinses as above, foam cells were equilibrated for 12 h in 200 μL FBS-free DMEM containing 2 μg/mL Sandoz inhibitor, 0.3 mM CPT-cAMP, 1% (w/v) P/S, and 5% (v/v) human LPDS. After two further rinses, the cells were treated with 100 μL of 5FAM-labeled treatments and controls in FBS-free DMEM containing 1% (w/v) P/S and 5% (v/v) human LPDS. After 12 h, the cells were washed twice with 500 μL PBS and then fixed for 10 minutes at room temperature using a PBS solution containing 10% (w/v) PFA, 25% (w/v) glutaraldehyde. Cells were then twice washed with PBS and subsequently stained for 45 min with 300 μL of wheat-germ agglutinin AlexaFluor 647 (WGA-647) prepared in PBS and 5% (v/v) goat serum at a 1:500 dilution. Cells were then twice washed with PBS and then stained with 300 μL DAPI dye (5 μg/mL in PBS) for 20 min. Cells were washed twice with PBS and then imaged using a Nikon AiR confocal microscope with a 20×, 0.75 numerical aperture dry objective.
A fluorescently labeled T-4FN-5FAM was used to promote cholesterol efflux from fluorescently-labeled foam cells (FIG. 5A and FIG. 15B). Cholesterol and T-4FN-5FAM fluorescence was quantified using Nikon AR Elements Analysis software's 3D volume viewer tool and plotted in a bar graph (FIG. 5C and FIG. 5D).

Chain of UniProt P41233 (P41233 whole entry): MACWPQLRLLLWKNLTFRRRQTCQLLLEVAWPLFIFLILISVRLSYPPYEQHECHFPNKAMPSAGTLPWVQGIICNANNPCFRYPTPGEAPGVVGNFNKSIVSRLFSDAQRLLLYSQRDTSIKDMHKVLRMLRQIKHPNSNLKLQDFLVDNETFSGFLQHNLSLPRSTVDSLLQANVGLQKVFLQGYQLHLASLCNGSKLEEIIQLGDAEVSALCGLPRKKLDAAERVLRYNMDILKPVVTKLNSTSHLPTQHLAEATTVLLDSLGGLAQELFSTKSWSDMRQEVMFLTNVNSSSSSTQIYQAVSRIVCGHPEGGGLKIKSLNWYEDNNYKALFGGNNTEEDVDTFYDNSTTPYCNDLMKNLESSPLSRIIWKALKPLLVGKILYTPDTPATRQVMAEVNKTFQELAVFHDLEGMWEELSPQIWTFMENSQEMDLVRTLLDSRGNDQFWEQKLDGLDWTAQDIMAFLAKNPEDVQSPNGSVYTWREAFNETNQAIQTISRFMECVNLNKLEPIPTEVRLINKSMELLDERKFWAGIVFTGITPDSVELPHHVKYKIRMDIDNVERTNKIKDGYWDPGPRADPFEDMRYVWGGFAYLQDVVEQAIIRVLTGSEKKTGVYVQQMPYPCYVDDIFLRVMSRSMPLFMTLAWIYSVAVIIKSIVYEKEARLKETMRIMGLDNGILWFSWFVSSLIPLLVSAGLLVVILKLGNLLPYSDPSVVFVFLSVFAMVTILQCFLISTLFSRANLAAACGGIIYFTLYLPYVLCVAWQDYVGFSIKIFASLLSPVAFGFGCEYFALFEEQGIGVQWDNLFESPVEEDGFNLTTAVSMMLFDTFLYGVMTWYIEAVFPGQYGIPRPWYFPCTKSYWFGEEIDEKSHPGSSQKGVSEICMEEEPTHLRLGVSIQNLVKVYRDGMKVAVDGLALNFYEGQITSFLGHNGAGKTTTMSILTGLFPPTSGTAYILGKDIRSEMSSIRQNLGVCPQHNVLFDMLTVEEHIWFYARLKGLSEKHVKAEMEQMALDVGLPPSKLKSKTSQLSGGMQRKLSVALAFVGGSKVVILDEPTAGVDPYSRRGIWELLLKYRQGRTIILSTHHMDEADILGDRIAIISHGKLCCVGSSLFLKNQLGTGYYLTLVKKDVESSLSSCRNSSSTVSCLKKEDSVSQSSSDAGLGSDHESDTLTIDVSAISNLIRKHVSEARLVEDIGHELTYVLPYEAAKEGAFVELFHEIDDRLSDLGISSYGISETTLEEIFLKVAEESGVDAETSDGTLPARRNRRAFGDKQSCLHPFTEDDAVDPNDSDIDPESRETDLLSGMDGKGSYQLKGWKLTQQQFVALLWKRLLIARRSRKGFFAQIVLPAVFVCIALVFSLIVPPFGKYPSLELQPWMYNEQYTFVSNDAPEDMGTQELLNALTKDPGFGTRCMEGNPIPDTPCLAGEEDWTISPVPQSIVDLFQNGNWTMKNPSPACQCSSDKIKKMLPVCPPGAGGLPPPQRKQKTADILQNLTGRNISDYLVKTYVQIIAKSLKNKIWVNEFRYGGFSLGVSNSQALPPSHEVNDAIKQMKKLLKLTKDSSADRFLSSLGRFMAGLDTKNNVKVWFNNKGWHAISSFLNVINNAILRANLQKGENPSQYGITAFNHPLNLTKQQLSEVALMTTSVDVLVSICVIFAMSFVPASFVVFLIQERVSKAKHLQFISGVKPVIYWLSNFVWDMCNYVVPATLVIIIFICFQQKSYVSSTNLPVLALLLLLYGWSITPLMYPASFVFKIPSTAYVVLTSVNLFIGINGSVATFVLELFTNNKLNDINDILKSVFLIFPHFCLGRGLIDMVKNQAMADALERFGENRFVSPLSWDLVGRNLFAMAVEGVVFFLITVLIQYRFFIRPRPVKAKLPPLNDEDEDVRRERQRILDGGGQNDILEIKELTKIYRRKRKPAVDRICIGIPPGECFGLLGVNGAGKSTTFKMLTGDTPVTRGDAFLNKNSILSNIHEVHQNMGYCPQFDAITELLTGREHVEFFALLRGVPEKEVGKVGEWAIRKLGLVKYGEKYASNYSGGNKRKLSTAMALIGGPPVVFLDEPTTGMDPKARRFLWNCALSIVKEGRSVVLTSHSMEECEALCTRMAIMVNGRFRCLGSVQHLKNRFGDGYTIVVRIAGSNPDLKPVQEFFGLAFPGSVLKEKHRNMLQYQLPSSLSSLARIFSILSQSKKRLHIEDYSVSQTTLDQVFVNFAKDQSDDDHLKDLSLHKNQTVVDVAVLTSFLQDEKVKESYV

## TMV-4FN conjugate (TMV-Lys nanoparticle displaying ApoAI peptide 4FN through an SM(PEG)4 linker) (from UniProt P69687 2-157)
[1]
  cholesterol efflux from J774 foam cells under upregulated ABCA1 conditions (fold (against TMV-4FC)): 2.5

## Qβ: 30-nm spherical virus-like particle with 180 identical coat protein units (SEQ ID NO: 6)
[2]
  PDI (DLS): 0.06
  Zav (hydrodynamic diameter, DLS): ~30.4 nm

## CGVLESFKASFLSALEEWTKKLQ [23MJ]
[3]
  ROS production (mitigation): did not mitigate ROS

## CSGGGDWFKAFYDKVAEKFKEAF [4FN]
[4]; upregulated ABCA1 conditions
  cholesterol efflux: most potent peptide
[5]
  increase in wound closure after 24 h: 3.20 fold

B1: TMV (protein)
chain: MSYSITTPSQFVFLSSAWADPIELINLCTNALGNQFQTQQARTVVQRQFSEVWKPSPQVTVRFPDSDFKVYRYNAVLDPLVTALLGAFDTRNRIIEVENQANPTTAETLDATRRVDDATVAIRSAINNLIVELIRGTGSYNRSSFESSSGLVWTSGPK
[2]
  PDI (DLS): 0.230
  Zav (hydrodynamic diameter, DLS): ~203.1 nm
[6]
  PDI after incubation with BODIPY-cholesterol: 0.158
  size change / cholesterol binding on incubation with BODIPY-cholesterol: inherent affinity for cholesterol
[6]; 2 h at 37° C. in 0.01M KP/DMSO
  Zav after incubation with BODIPY-cholesterol: 293.6 nm
[6]; cholesterol-free control
  PDI before incubation with BODIPY-cholesterol: 0.240
[7]
  Dil-LDL cholesterol fluorescence intensity (cell-associated): promotes a baseline level of cholesterol efflux
  localization of particles on foam cells: mostly observed within the foam cells
[5]
  increase in wound closure after 12 h: 2.58 fold
  increase in wound closure after 24 h: 3.15 fold

B2: Qβ-4FN: bacteriophage Qβ VLP conjugated to ApoAI peptide 4FN via SM(PEG)4 (conjugate)
chain: AKLETVTLGNIGKDGKQTLVLNPRGVNPTNGVASLSQAGAVPALEKRVTVSVSQPSRNRKNYKVQVKIQNPTACTANGSCDPSVTRQAYADVTFSFTQYSTDEERAFVRTELAALLASPLLIDAIDQLNPAY
peptide: CSGGGDWFKAFYDKVAEKFKEAF
[2]
  PDI (DLS): 0.177
  Zav (hydrodynamic diameter, DLS): ~40.5 nm
[4]; upregulated ABCA1 conditions
  cholesterol efflux: does not display significant cholesterol efflux

B3: T-4FN: TMV-Lys nanoparticle with 4FN ApoAI peptide conjugated to surface lysines via SM(PEG)4 maleimide-thiol chemistry (conjugate)
chain: SYSITTPSQFVFLSSAWADPIELINLCTNALGNQFQTQQARTVVQRQFSEVWKPSPQVTVRFPDSDFKVYRYNAVLDPLVTALLGAFDTRNRIIEVENQANPTTAETLDATRRVDDATVAIRSAINNLIVELIRGTGSYNRSSFESSSGLVWTSGPK
peptide: CSGGGDWFKAFYDKVAEKFKEAF
[2]
  PDI (DLS): 0.266
  Zav (hydrodynamic diameter, DLS): ~255.8 nm
[6]
  PDI after incubation with BODIPY-cholesterol: 0.145
  size change / cholesterol binding on incubation with BODIPY-cholesterol: greatest change
[6]; 2 h at 37° C. in 0.01M KP/DMSO
  Zav after incubation with BODIPY-cholesterol: 708.8 nm
[6]; 480/508 nm, signal after minus before binding
  change in fluorescence after BODIPY-cholesterol binding: most intense signal
[6]; cholesterol-free control
  PDI before incubation with BODIPY-cholesterol: 0.193
[6]; cholesterol-free control, 2 h at 37° C. in 0.01M KP/DMSO
  Zav before incubation with BODIPY-cholesterol: 220.5 nm
[4]; homeostatic ABCA1 conditions, FIG. 4D
  cholesterol efflux when ABCA1 receptor is not upregulated: drastically decreases
[4]; upregulated ABCA1 conditions, FIGS. 4B-4C
  cholesterol efflux potency relative to TMV-4FC: ~2.5 fold
[7]
  Dil-LDL cholesterol fluorescence intensity (cell-associated): significantly lower
  fluorescence intensity of 5FAM (cell-associated): significantly higher
  localization of particles on foam cells: extracellular, forming a dense layer on the plasma membrane
[3]
  ROS production (mitigation): reducing the ROS signal to near the level of the negative media control
[5]
  increase in wound closure after 12 h: 6.41 fold
  increase in wound closure after 24 h: 4.70 fold
